Assay results published in patent US6541220 (GENERAL HOSPITAL, dated 2003).
Each block holds one binder with its values, some of them ahead of it. No end group written: not given here.

What was measured:
[1] = molecular target: T1, zebrafish PTH1R receptor, clone zPTH1R#29 (shorter 5' UT, 149 bp), transiently expressed in COS-7 cells (zebrafish (Danio rerio)); assay: cell-based or functional assay
T1 chain: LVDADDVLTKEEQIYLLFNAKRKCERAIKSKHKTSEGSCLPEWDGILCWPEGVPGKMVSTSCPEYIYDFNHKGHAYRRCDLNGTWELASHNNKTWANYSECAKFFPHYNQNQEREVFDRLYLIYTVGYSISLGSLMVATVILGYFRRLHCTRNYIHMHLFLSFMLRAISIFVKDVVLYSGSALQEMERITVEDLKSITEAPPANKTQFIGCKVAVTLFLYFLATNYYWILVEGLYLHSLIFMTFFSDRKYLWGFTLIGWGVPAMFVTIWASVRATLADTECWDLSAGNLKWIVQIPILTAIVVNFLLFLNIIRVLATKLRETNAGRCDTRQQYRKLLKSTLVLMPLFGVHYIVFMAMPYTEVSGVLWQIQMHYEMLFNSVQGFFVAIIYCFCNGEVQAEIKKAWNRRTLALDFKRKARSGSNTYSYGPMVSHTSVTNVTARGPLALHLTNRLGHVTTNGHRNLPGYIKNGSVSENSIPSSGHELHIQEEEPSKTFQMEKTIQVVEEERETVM

[2] = molecular target: T2, zebrafish PTH1R receptor, clone zPTH1R#25 (longer 5' UT, 391 bp), transiently expressed in COS-7 cells (zebrafish (Danio rerio)); assay: competitive radioligand binding on intact COS-7 cells expressing the receptor, room temperature; unlabeled hPTH, radioligand not clearly stated (125I-rPTH or 125I-PTHrP)
T2 construct: only the 5' UT differs; also called zPPR1#25
T2 chain: T1 chain
Experimental: (§1) Peptides were synthesized by the MGH polymer core facility as described (Gardella et al., (1996)). Specific binding was calculated by subtracting radioligand binding in the presence of excess unlabeled peptide from the total binding. All points represent mean±S.E.M. of two to three replicates from two or more independent experiments.
(§2) Table 3. Binding and cAMP Signaling Properties of PTH and PTHrP Analogs on the zPTH1R and the zPTH3R Competitive binding and cAMP stimulation assays were performed at room temperature with intact COS-7 cells that expressed either the zPTH1R or the zPTH3R, as described in Materials and Methods. […] Values are the mean±SEM of at least three independent transfections. ND, not determined.

[3] = molecular target: T1, zebrafish PTH1R receptor, clone …; assay: as above
Experimental: as §1, §2

[4] = molecular target: T3, zebrafish PTH3R receptor, transiently expressed in COS-7 cells (zebrafish (Danio rerio)); assay: as above
T3 construct: Full-length cDNA expressed on intact COS-7 cells; also called zPTH3R; zPPR3
T3 chain: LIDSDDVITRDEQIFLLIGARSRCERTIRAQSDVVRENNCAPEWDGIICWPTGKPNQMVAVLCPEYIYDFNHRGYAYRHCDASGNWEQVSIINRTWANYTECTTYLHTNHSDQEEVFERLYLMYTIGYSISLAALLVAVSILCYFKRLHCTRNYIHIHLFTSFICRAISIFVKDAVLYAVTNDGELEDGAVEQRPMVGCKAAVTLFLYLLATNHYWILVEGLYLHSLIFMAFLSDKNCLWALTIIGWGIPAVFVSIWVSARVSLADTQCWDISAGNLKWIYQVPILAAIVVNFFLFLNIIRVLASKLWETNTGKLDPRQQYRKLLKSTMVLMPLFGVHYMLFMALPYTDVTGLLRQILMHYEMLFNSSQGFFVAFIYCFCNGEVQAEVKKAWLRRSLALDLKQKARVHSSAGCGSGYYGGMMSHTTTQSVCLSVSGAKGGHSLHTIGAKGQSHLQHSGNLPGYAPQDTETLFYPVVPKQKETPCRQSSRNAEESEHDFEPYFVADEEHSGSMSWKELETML
Experimental: as §1, §2

[5] = molecular target: T2, zebrafish PTH1R receptor, clone …; assay: cell-based or functional assay
[6] = molecular target: T1, zebrafish PTH1R receptor, clone …; assay: cell-based or functional assay
[7] = molecular target: T3, zebrafish PTH3R receptor, transiently …; assay: cell-based or functional assay
[8] = molecular target: T2, zebrafish PTH1R receptor, clone …; assay: radioligand binding on COS-7 cells expressing the receptor
Experimental: (§3) Plasmid DNAs encoding the two full length zPTH1Rs (#25 and #29) and the zPTH3R were transiently expressed in COS-7 cells. COS-7 African green monkey kidney cells (approximately 200,000 cells/well in a 24-well plate) were cultured and transfected with plasmid DNA (200 ng/well) as described (Rubin et al., (1998)). After transfection, cells were cultured for 72 hrs at 37° with daily exchanges of medium, followed by an additional 24 hrs at 33° (Gardella et al., (1997)) until they were functionally evaluated after 96 hrs.
as §1

[9] = molecular target: T1, zebrafish PTH1R receptor, clone …; assay: as above
Experimental: as §3, §1

[10] = molecular target: T3, zebrafish PTH3R receptor, transiently …; assay: as above
Experimental: as §3, §1

IP accumulation (total inositol phosphates, 10^-6 M ligand) [1]: 2 fold
IC50 [2]: ~3 nM
IC50 [3]: ~3 nM
IC50 [4]: ~100 nM
cAMP EC50 [5]: ~3 nM
cAMP Maximum [5]: 90.4 pmol/well
cAMP EC50 [6]: 0.8 nM
cAMP Maximum [6]: 106 pmol/well
cAMP EC50 [7]: 5.98 nM
cAMP Maximum [7]: 227 pmol/well
B1: [Tyr34]hPTH(1-34)amide (peptide)
peptide: SVSEIQLMHNLGKHLNSMERVEWLRKKLQDVHNY-NH2
notes: Synthetic analog of human PTH(1-34) with Tyr at 34

binding result [8]: binds
binding result [9]: binds
binding result [10]: binds
B2: 125I-labeled [Nle8,21,Tyr34]rPTH-(1-34)amide (peptide)
peptide: AVSEIQLXHNLGKHLASVERXQWLRKKLQDVHNY
modifications: Nle at 8 and 21; C-terminal amide; 125I-labeled
notes: Synthetic analog of rat PTH(1-34), used as radioligand
